We go through 7 variants from FireProtDB (doi:10.1021/bi0015717).

Values joined by “and” are separate entries in the source; they are usually repeats but may differ in a detail not shown here. Identical values can stand only once.

The term Tm denotes the temperature at the midpoint of the melting transition.

B1: Lysozyme C, P61626 (parent)
chain: MKALIVLGLVLLSVTVQGKVFERCELARTLKRLGMDGYRGISLANWMCLAKWESGYNTRATNYNAGDRSTDYGIFQINSRYWCNDGKTPGAVNACHLSCSALLQDNIADAVACAKRVVRDPQGIRAWVAWRNRCQNRDVRQYVQGCGV

Variants of B1 are the subject of one data set. The following applies: Homo sapiens; pH 2.5; Thermal; DSC; glycine-HCl 0.05 M; reversible: yes; structure 1LZ1; whole UniProt chain shown.
In the case of V128L, the midpoint of thermal melting (Tm) worked out at 61.9 °C and the “unfolding enthalpy (calorimetric)” value turned out to be 105 kcal/mol.
The corresponding values for V92L are 62.4 °C and 100 kcal/mol.
The corresponding values for V92M are 63.4 °C and 107 kcal/mol.

The same data set, now with this note: Homo sapiens; pH 2.7; 64.9 °C; Thermal; DSC; glycine-HCl 0.05 M; reversible: yes; structure 1LZ1; whole UniProt chain shown.
As for V128L, the “ddG of mutation (higher = less stable)” value is -0.07 kcal/mol.
Still for that read-out and setting: the value for V128G was -0.48 kcal/mol; that for V92L was -0.19 kcal/mol.
Same read-out and setting: then V92M, with -0.65 kcal/mol; and V92G, with 0.22 kcal/mol; and V92I, with -0.45 kcal/mol.
Still for that read-out and setting: the value for V92F was 0.29 kcal/mol.

The data set is the same for the next values; noted with them: Homo sapiens; pH 2.7; Thermal; DSC; glycine-HCl 0.05 M; reversible: yes; structure 1LZ1; whole UniProt chain shown.
Turning to V128L, the melting temperature (Tm) was 65 °C and 65.1 °C and 64.9 °C; the “change of melting temperature, mutant - wild type (higher = more stable)” value (shortened to “change of melting temperature, mutant”) is 0.2 °C; the “heat capacity change of unfolding” value amounted to 1.29 kcal/mol/K; the “unfolding enthalpy (calorimetric)” value was 108 kcal/mol and 109 kcal/mol.
Consider V128G, for which the Tm is 66.5 °C and 64.9 °C; the “change of melting temperature, mutant” value worked out at 1.6 °C; the “heat capacity change of unfolding” value came to 1.82 kcal/mol/K; the “unfolding enthalpy (calorimetric)” value is 99.9 kcal/mol.
Take V92L: the Tm is 65.3 °C and 65.5 °C and 64.9 °C; the “change of melting temperature, mutant” value came to 0.6 °C; the “heat capacity change of unfolding” value worked out at 1.27 kcal/mol/K; the “unfolding enthalpy (calorimetric)” value is 104 kcal/mol and 103 kcal/mol.
As to V92M, the Tm is 66.9 °C and 64.9 °C; the “change of melting temperature, mutant” value was 2 °C; the “heat capacity change of unfolding” value came to 1.58 kcal/mol/K; the “unfolding enthalpy (calorimetric)” value is 113 kcal/mol and 109 kcal/mol.
Consider V92G, for which the Tm amounted to 64.9 °C.
Take V92I: the Tm is 66.6 °C and 64.9 °C; the “change of melting temperature, mutant” value came out at 1.7 °C; the “heat capacity change of unfolding” value was 1.2 kcal/mol/K; the “unfolding enthalpy (calorimetric)” value came to 88.4 kcal/mol.
For the variant V92F, the Tm was 64 °C and 64.9 °C; the “change of melting temperature, mutant” value was -0.9 °C; the “heat capacity change of unfolding” value was determined as 1.34 kcal/mol/K; the “unfolding enthalpy (calorimetric)” value was 110 kcal/mol.

The same data set, now with this note: Homo sapiens; pH 2.82; Thermal; DSC; glycine-HCl 0.05 M; reversible: yes; structure 1LZ1; whole UniProt chain shown.
For V128L, the Tm was 67 °C and the “unfolding enthalpy (calorimetric)” value amounted to 111 kcal/mol.

The same data set, now with this note: Homo sapiens; pH 3.03; Thermal; DSC; glycine-HCl 0.05 M; reversible: yes; structure 1LZ1; whole UniProt chain shown.
V128L: the midpoint of thermal melting (Tm) was 70.5 °C and the “unfolding enthalpy (calorimetric)” value is 115 kcal/mol.

The data set is the same for the next values; noted with them: Homo sapiens; pH 3.25; Thermal; DSC; glycine-HCl 0.05 M; reversible: yes; structure 1LZ1; whole UniProt chain shown.
In the case of V128L, the Tm came out at 74.5 °C and the “unfolding enthalpy (calorimetric)” value was found to be 121 kcal/mol.

The data set is the same for the next values; noted with them: Homo sapiens; pH 2.6; Thermal; DSC; glycine-HCl 0.05 M; reversible: yes; structure 1LZ1; whole UniProt chain shown.
As to V128G, the Tm stood at 64.6 °C and the “unfolding enthalpy (calorimetric)” value came to 99.9 kcal/mol.

Staying with this data set, now noted: Homo sapiens; pH 2.94; Thermal; DSC; glycine-HCl 0.05 M; reversible: yes; structure 1LZ1; whole UniProt chain shown.
For V128G, the Tm was determined as 70.6 °C and the “unfolding enthalpy (calorimetric)” value came to 110 kcal/mol.

The same data set, now with this note: Homo sapiens; pH 3.11; Thermal; DSC; glycine-HCl 0.05 M; reversible: yes; structure 1LZ1; whole UniProt chain shown.
Consider V128G, for which the Tm was 73.4 °C and the “unfolding enthalpy (calorimetric)” value is 115 kcal/mol.

Staying with this data set, now noted: Homo sapiens; pH 3.3; Thermal; DSC; glycine-HCl 0.05 M; reversible: yes; structure 1LZ1; whole UniProt chain shown.
Turning to V128G, the midpoint of thermal melting (Tm) is 76.6 °C and the “unfolding enthalpy (calorimetric)” value stood at 122 kcal/mol.
The corresponding values for V92G are 74 °C and 129 kcal/mol.

The same data set, now with this note: Homo sapiens; pH 2.83; Thermal; DSC; glycine-HCl 0.05 M; reversible: yes; structure 1LZ1; whole UniProt chain shown.
Regarding V92L, the midpoint of thermal melting (Tm) stood at 67.5 °C and the “unfolding enthalpy (calorimetric)” value was 107 kcal/mol.
The corresponding values for V92M are 69.4 °C and 117 kcal/mol.

Still in this data set, the particulars now being: Homo sapiens; pH 3.05; Thermal; DSC; glycine-HCl 0.05 M; reversible: yes; structure 1LZ1; whole UniProt chain shown.
With V92L, the melting temperature (Tm) turned out to be 71.6 °C and the “unfolding enthalpy (calorimetric)” value was found to be 112 kcal/mol.

Still in this data set, the particulars now being: Homo sapiens; pH 3.15; Thermal; DSC; glycine-HCl 0.05 M; reversible: yes; structure 1LZ1; whole UniProt chain shown.
Consider V92L, for which the Tm is 73.3 °C and the “unfolding enthalpy (calorimetric)” value came out at 114 kcal/mol.

The data set is the same for the next values; noted with them: Homo sapiens; pH 3.1; Thermal; DSC; glycine-HCl 0.05 M; reversible: yes; structure 1LZ1; whole UniProt chain shown.
In the case of V92M, the Tm was determined as 73.2 °C and the “unfolding enthalpy (calorimetric)” value was 123 kcal/mol.
V92F: the Tm is 70.5 °C and the “unfolding enthalpy (calorimetric)” value worked out at 117 kcal/mol.

The same data set, now with this note: Homo sapiens; pH 3.2; Thermal; DSC; glycine-HCl 0.05 M; reversible: yes; structure 1LZ1; whole UniProt chain shown.
On to V92M, for which the midpoint of thermal melting (Tm) was 75 °C and the “unfolding enthalpy (calorimetric)” value was 125 kcal/mol.

Still in this data set, the particulars now being: Homo sapiens; pH 2.53; Thermal; DSC; glycine-HCl 0.05 M; reversible: yes; structure 1LZ1; whole UniProt chain shown.
With V92G, the midpoint of thermal melting (Tm) stood at 61.3 °C and the “unfolding enthalpy (calorimetric)” value is 108 kcal/mol.

The same data set, now with this note: Homo sapiens; pH 2.95; Thermal; DSC; glycine-HCl 0.05 M; reversible: yes; structure 1LZ1; whole UniProt chain shown.
In the case of V92G, the Tm worked out at 68.7 °C and the “unfolding enthalpy (calorimetric)” value is 121 kcal/mol.

Still in this data set, the particulars now being: Homo sapiens; pH 3.09; Thermal; DSC; glycine-HCl 0.05 M; reversible: yes; structure 1LZ1; whole UniProt chain shown.
In the case of V92G, the Tm came out at 70.8 °C and the “unfolding enthalpy (calorimetric)” value turned out to be 124 kcal/mol.

The same data set, now with this note: Homo sapiens; pH 2.67; Thermal; DSC; glycine-HCl 0.05 M; reversible: yes; structure 1LZ1; whole UniProt chain shown.
Consider V92I, for which the Tm stood at 66.1 °C and the “unfolding enthalpy (calorimetric)” value was 89.9 kcal/mol.

The same data set, now with this note: Homo sapiens; pH 2.8; Thermal; DSC; glycine-HCl 0.05 M; reversible: yes; structure 1LZ1; whole UniProt chain shown.
V92I: the melting temperature (Tm) is 68.3 °C and the “unfolding enthalpy (calorimetric)” value amounted to 92.5 kcal/mol.

Still in this data set, the particulars now being: Homo sapiens; pH 3; Thermal; DSC; glycine-HCl 0.05 M; reversible: yes; structure 1LZ1; whole UniProt chain shown.
Take V92I: the Tm is 71.7 °C and the “unfolding enthalpy (calorimetric)” value came out at 96.6 kcal/mol.

The same data set, now with this note: Homo sapiens; pH 2.68; Thermal; DSC; glycine-HCl 0.05 M; reversible: yes; structure 1LZ1; whole UniProt chain shown.
On to V92F, for which the Tm was 63.6 °C and the “unfolding enthalpy (calorimetric)” value was determined as 108 kcal/mol.

Still in this data set, the particulars now being: Homo sapiens; pH 2.84; Thermal; DSC; glycine-HCl 0.05 M; reversible: yes; structure 1LZ1; whole UniProt chain shown.
For the variant V92F, the midpoint of thermal melting (Tm) turned out to be 66.3 °C and the “unfolding enthalpy (calorimetric)” value worked out at 112 kcal/mol.

The data set is the same for the next values; noted with them: Homo sapiens; pH 3.23; Thermal; DSC; glycine-HCl 0.05 M; reversible: yes; structure 1LZ1; whole UniProt chain shown.
Consider V92F, for which the Tm stood at 72.4 °C and the “unfolding enthalpy (calorimetric)” value is 120 kcal/mol.

Still in this data set, the particulars now being: Homo sapiens; pH 3.4; Thermal; DSC; glycine-HCl 0.05 M; reversible: yes; structure 1LZ1; whole UniProt chain shown.
Consider V92F, for which the melting temperature (Tm) was determined as 75.6 °C and the “unfolding enthalpy (calorimetric)” value worked out at 124 kcal/mol.
